Laboratory results reported in patent US20100159527, “Polypeptides Having Nucleic Acid Binding Activity and Compositions and Methods For Nucleic Acid Amplification” (LIFE TECHNOLOGIES CORPORATION, published 2010).

B1: 42-mer DNA:DNA duplex (oligos 1a+2a) (dsDNA)
DNA 1: CAGACTGGAATTCAAGCGCGAGCTCGAATAAGAGCTACTGTT
DNA 2: AACAGTAGCTCTTATTCGAGCTCGCGCTTGAATTCCAGTCTG
B2: 42-mer DNA:RNA duplex (oligos 1a+2b) (DNA:RNA)
DNA: CAGACTGGAATTCAAGCGCGAGCTCGAATAAGAGCTACTGTT
RNA: AACAGUAGCUCUUAUUCGAGCUCGCGCUUGAAUUCCAGUCUG
B3: 42-mer RNA:RNA duplex (oligos 1b+2b) (dsRNA)
RNA 1: CAGACUGGAAUUCAAGCGCGAGCUCGAAUAAGAGCUACUGUU
RNA 2: AACAGUAGCUCUUAUUCGAGCUCGCGCUUGAAUUCCAGUCUG

How the values were obtained:
Pae3192 [1] = molecular target: T1, Pae3192 (Pyrobaculum aerophilum); test: EMSA; 150 nM duplex, 0-12 uM protein; 170 mM NaCl, 1 mM CaCl2, 25 mM Tris pH 8.0, 40 C, 1% agarose; conditions: tags: expressed from pET16b with N-terminal 10xHis and Factor Xa site
T1 chain: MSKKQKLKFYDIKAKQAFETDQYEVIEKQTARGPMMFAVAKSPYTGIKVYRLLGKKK
Procedure: (§1) Gel-shift experiments were carried out using 150 nM 42-mer duplex and separate experiments were performed with 0, 1.5, 3, 6 or 12 uM Pae3192 protein. A DNA:DNA duplex was created by annealing DNA oligonucleotides 1a and 2a of Table 1 below. An RNA:RNA duplex was created by annealing RNA oligonucleotides 1b and 2b of Table 1 below. A DNA:RNA duplex was created by annealing DNA oligonucleotide 1a to RNA oligonucleotide 2b of Table 1 below. DNA binding reactions contained 170 mM NaCl, 1 mM CaCl₂ and 25 mM Tris, pH 8.0. Pae3192 was incubated separately with each of the three duplexes for 15 minutes at 40° C. before being run on a 1% agarose gel.

Pae3192 [2] = molecular target: T1, Pae3192; test: EMSA; not shifted up to 12 uM protein; 170 mM NaCl, 1 mM CaCl2, 25 mM Tris pH 8.0, 40 C, RNasin Plus; conditions: tags: expressed from pET16b with N-terminal 10xHis and Factor Xa site
Procedure: as §1

Binder	binding result (Pae3192 [1])	binding result (Pae3192 [2])
B1	binds	
B2	binds	
B3		no binding
